Measured values taken from US20240158472A1, “FERRITIN VARIANTS WITH INCREASED STABILITY AND COMPLEXATION ABILITY” (Cellis AG, priority 2021, published 2024).

Experiments:
[1] = Native PAGE gel after doxorubicin encapsulation and purification; format: physicochemical; conditions: after doxorubicin encapsulation; mutants carry added K54E, K72E, K87Q, K144E, C91S, C103S
From the text: Native PAGE gel has been performed in order to check the size of the protein after encapsulation and purification.

[2] = Native gel after storage in freezer (-80 degrees Celsius) and thawing; format: physicochemical; conditions: ferritin cages with doxorubicin, mutants of b203
[3] = test system: MDA-MB 231, Skov3 and 4T1; assay: Tumour cell viability after 72 h co-culture with macrophages carrying doxorubicin packed ferritin; format: cell-based; conditions: ferritin cages filled with doxorubicin 1 mg/ml
Method: FIG. 7: Graphs of tumour cell viability after 72 h co-culture with macrophages. The concentration of ferritin cages filled with doxorubicin was the same for each variant of ferritin and was equal to 1 mg/ml.
The doxorubicin packed proteins were inserted into macrophages and then co-cultured with breast and ovarian cancer cell lines: MDA-MB 231, Skov3 and 4T1. The number of viable cells after co-culture was the lowest for the Q11E-Q15E mutant (FIG. 7).

B1: Q11E-Q15E mutant: Examples 3-8 ferritin variant based on Q11E-Q15E with added K54E, K72E, K87Q, K144E, C91S and C103S (protein, UniProt P02794 1-183, looked up, variant Q11E Q15E K54E K72E K87Q K144E C91S C103S)
Ferritin heavy chain: MTTASTSQVRENYHEDSEAAINRQINLELYASYVYLSMSYYFDRDDVALKNFAEYFLHQSHEEREHAEKLMELQNQRGGRIFLQDIQKPDSDDWESGLNAMESALHLEKNVNQSLLELHKLATDKNDPHLCDFIETHYLNEQVEAIKELGDHVTNLRKMGAPESGLAEYLFDKHTLGDSDNES
modifications: doxorubicin-loaded form also
For B1, the “forms on native gel (aggregates versus 24-mers)” value [1] was “present as 24-mers (homogeneous cages)”, the “aggregation of cages after storage” value [2] was “still present as 24-mers (homogeneous cages) after storage” and the “number of viable cells after co-culture” value [3] was “lowest”.
